Source: patent US20220031842A1 (JIANGSU HENGRUI MEDICINE, published 2022)
Read-outs that look alike come from different tables or passages of the source.

T1: LAG-3 extracellular domain with a Flag tag (human, UniProt P18627 23-434)
T1 construct: also called LAG-3-Flag; LAG-3-Flag antigen
T1 sequence: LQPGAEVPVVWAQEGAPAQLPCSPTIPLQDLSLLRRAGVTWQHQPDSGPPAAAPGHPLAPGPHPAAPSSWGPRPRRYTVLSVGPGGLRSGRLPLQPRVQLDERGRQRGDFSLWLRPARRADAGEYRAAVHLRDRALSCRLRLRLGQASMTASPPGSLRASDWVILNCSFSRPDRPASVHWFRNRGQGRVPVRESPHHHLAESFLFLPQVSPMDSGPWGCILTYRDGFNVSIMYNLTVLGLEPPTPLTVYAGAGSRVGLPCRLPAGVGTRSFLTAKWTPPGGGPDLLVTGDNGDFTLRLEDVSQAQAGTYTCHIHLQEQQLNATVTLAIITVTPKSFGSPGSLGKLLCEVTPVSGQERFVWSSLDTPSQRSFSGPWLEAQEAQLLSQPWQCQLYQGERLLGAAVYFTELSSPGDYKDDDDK


Legend:
[1] = biological target: T2, Fusion protein of LAG-3 extracellular region and hIgG1 Fc (human); test: ELISA, LAG-3-Fc captured by anti-human Fc on plate (which fusion: inferred)
T2 construct: Limits of the signal peptide are marked only by lost underlining; also called LAG-3-Fc; LAG-3-Fc fusion protein
Excerpt: (§1) The binding ability of anti-LAG-3 antibody to human LAG-3 protein was detected by ELISA assay. LAG-3 fusion protein with Fc or mFc tag was immobilized into 96-well microtiter plate by binding to anti-Fc or anti-mFc antibody coated on the microtiter plate, the strength of the signal after the addition of the antibody was used to determine the binding activity of the antibody to LAG-3, the specific experimental method is as follows.
(§2) The goat anti-human Fc antibody (Jackson Immuno Research, Cat No. 109-005-008) or goat anti-mouse Fc antibody (Sigma, Cat No. M3534-1ML) was diluted to a concentration of 2 μg/ml with PBS buffer at pH 7.4 (Sigma, Cat No. P4417-100TAB), and added to a 96-well plate at a volume of 50 μl/well and then, the plate was incubated in the incubator at 37° C. for 2 hours. After discarding the liquid, the plates were blocked with 200 μl/well of blocking solution containing 5% skim milk (Bright Dairy, skim milk powder) in PBS, and incubated in the incubator at 37° C. for 2.5 hours or overnight at 4° C. (16-18 hours). After blocking, the blocking solution was discarded and the plate was washed 5 times with PBST buffer (PH7.4 PBS containing 0.05% tween-20). […]

[2] = biological target: T2, Fusion protein of LAG-3 extracellular …; test: as above; remark: listed apart in the source
Excerpt: as §1, §2

[3] = biological target: T2, Fusion protein of LAG-3 extracellular …; test: competition: biotin-LAG-3-Fc binding to fixed Daudi cells, antibody titrated
Description: Daudi cells (human leukemia cells, purchased from the cell bank in Chinese Academy of Sciences) were seeded in 96-well plate with a density of 3×10⁵/well. After centrifugation at 1000 rpm, the supernatant was discarded and then the plate was fixed with 4% PFA for 30 min at room temperature. The plate was washed 4 times with PBS after discarding the fixed solution, and the plate was blocked with 200 μl/well of blocking solution containing 5% skim milk (Bright Dairy, skim milk powder) diluted in PBS, and incubated at 37° C. for 2.5 hours. After blocking, the blocking solution was discarded and the plate was washed 5 times with PBST buffer (pH7.4 PBS containing 0.05% tween-20), added with 50 μl/well mixture of biotin-labeled (Biotin labeling kit, Dojindo Chemical, Cat No. LK03) LAG-3-Fc fusion protein (produced in-house, SEQ ID NO: 3) and gradient concentrations of the antibody to be tested, wherein the biotin-labeled LAG-3-Fc fusion protein has been diluted with sample diluent (PH7.4 PBS containing 1% BSA) at a final concentration of 0.4 μg/ml, and pre-mixed for an hour, then the plate was incubated at 37° C. for 1 h. […] The OD value at a wavelength of 450 nm was read on NOVOStar microplate reader, and then the activity of the LAG-3 antibody in blocking the binding of the antigen to Daudi cells was calculated.

[4] = biological target: T2, Fusion protein of LAG-3 extracellular …; test: as above; remark: listed apart in the source
Outline: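 Daudi cells were PFA-fixed and blocked, then given 0.4 μg/ml (final) biotin-LAG-3-Fc premixed for 1 h with titrated antibody, and incubated 1 h at 37° C. Bound fusion protein was detected with HRP-streptavidin and TMB, read at OD450. Antibody blocking of antigen binding to the cells was calculated from the signal.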
Target sequence in this assay (chain, as listed by the source limits assumed): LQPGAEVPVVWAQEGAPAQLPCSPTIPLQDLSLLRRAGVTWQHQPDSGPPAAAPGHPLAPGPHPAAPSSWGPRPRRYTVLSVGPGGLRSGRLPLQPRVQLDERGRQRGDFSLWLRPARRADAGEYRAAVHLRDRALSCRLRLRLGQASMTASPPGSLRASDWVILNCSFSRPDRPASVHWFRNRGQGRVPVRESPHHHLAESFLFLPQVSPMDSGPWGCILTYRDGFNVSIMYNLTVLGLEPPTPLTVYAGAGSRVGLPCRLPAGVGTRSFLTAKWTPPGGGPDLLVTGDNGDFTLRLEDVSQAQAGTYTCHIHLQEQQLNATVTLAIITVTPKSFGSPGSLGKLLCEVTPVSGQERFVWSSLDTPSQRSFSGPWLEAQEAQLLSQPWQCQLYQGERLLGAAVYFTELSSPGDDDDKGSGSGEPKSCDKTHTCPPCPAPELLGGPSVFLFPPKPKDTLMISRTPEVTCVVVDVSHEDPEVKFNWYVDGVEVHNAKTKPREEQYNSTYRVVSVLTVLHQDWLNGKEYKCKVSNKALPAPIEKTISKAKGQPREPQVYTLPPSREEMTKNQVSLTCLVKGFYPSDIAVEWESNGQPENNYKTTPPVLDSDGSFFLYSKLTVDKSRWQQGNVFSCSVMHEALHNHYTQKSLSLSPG

[5] = biological target: T1, LAG-3 extracellular domain with a Flag …; test: SPR (Biacore), antibody captured on anti-mouse capture chip, LAG-3-Flag in flow
Excerpt: (§3) 1. […] Then, the LAG-3-Flag antigen (produced in-house, SEQ ID NO:1) was flowed through the surface of the biochip, and the reaction signal was detected in real time by using a Biacore instrument to obtain the binding and dissociation curves, the value of affinity was obtained by fitting, see above table 2. After each cycle of dissociation was finished in the experiment, the biochip was washed and regenerated with a regeneration solution provided in the mouse anti-capture kit.

[6] = biological target: T1, LAG-3 extracellular domain with a Flag …; test: SPR (Biacore), antibody captured on anti-human capture chip, LAG-3-Flag in flow
Excerpt: as §3, with “2.” for “1.”, “detected” for “detected in”, “time” for “time by”, “see” for “see above”, “10 below.” for “2.”, “human” for “mouse”

| EC50 [1] [nM] | EC50 [2] [nM] | IC50 [3] [nM] | IC50 [4] [nM] | Kd [5] [nM] | Kd [6] [nM] | Binder |
| --- | --- | --- | --- | --- | --- | --- |
| 0.172 | 0.172 | 0.596 | 0.596 | 0.47 | 0.0749 | mAb303 (antibody, V domains shown, Murine hybridoma antibody; also called LAG-3 antibody mAb303; hybridoma clone mAb303) VH: EVQLQQSGPVLVKPGASVKMSCKASGYTLTDYYMNWVKQSHGKSLEWIGVINPYNGDTAYNQKFKGKATLTVDKSSNTAYMEINSLTSEDSAVYYCTRDDGYYDYYFDVWGTGTTVTVSS VL: DIQMTQSPSSLSASLGERVILTCRASQDIGSRLNWLQQGPDGTFKRLIYATSTLDSGVPKRFSGSRSGSDFSLTISSLESEDFVDYYCLQLASSPPTFGGGTKLEIK |
| 0.129 | 0.129 | 1.33 | 1.33 | 0.426 | 0.0172 | mAb229 (antibody, V domains shown, Murine hybridoma antibody; also called LAG-3 antibody mAb229; hybridoma clone mAb229) VH: QIQLVQSGPELKKPGETVKISCKASGYTFTTSGMSWVKQAPGKGLKWMGWINTYSGVPTYADDFKGRFAFSLETSASTAYLQINNLKNEDTATYFCARDNYDARDVYYYAMDYWGQGTSVTVSS VL: DIQMTQSPASLSVSVGETVTITCRASENIYSNLAWYQQKQGKSPQLLVYAATNLADGVPSRFSGSGSGTQYSLKINSLQSEDFGSYYCQHFWITPWTFGGGTKLEIK |
